Target: HA-Ras (wild-type) (UniProt P01112)
Chain of UniProt P01112 (P01112 whole entry, looked up): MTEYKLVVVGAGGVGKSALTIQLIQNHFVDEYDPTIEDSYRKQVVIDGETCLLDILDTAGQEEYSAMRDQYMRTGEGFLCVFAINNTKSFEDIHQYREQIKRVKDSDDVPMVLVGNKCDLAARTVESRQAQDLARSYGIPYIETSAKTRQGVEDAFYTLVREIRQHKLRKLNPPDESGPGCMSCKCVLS

Substance: Flag-SOS
- amount of GTP-bound HA-Ras (32-PO4 labeling, a-HA immunoprecipitation, TLC): expression of Flag-SOS significantly increased the amount of GTP-bound HA-Ras

— patent US20020150566
